# US20230143604A1, “QW DOSING OF GIP RECEPTOR AGONIST PEPTIDE COMPOUNDS AND USES THEREOF” (TAKEDA PHARMACEUTICAL COMPANY LIMITED, priority 2020, published 2023)
# Starred links: 1 amine or outer side, 2 acyl side, 3 side chain; linkers in the order of their positions; H or OH if unused. Non-standard residues stand in square brackets, D forms with d. Groups on a side chain read outwards from the residue. No end group written: not given here. *: point of attachment. 2OEGgEgE‑C18 diacid = O=C(O)CCCCCCCCCCCCCCCCC(=O)N[C@@H](CCC(=O)N[C@@H](CCC(=O)NCCOCCOCC(=O)NCCOCCOCC(=O)*)C(=O)O)C(=O)O; C18 diacid = O=C(O)CCCCCCCCCCCCCCCCC(=O)*; C17 diacid = O=C(O)CCCCCCCCCCCCCCCC(=O)*; γGlu = O=C(O)[C@H](CCC(=O)[*:2])N[*:1]; NMeY = CN[C@@H](Cc1ccc(O)cc1)C(=O)O; AEEA = NCCOCCOCC(=O)O; Aib = CC(C)(N)C(=O)O
# What was measured:
# [1] = target: full-length human GLP-1R with an N-terminal FLAG tag (human, UniProt P43220 24-463); experiment: cell-based or functional assay
# [2] = target: T1, full-length human GIPR with an N-terminal FLAG tag (human, UniProt P48546 22-466); experiment: cell-based or functional assay
# T1 sequence (looked up): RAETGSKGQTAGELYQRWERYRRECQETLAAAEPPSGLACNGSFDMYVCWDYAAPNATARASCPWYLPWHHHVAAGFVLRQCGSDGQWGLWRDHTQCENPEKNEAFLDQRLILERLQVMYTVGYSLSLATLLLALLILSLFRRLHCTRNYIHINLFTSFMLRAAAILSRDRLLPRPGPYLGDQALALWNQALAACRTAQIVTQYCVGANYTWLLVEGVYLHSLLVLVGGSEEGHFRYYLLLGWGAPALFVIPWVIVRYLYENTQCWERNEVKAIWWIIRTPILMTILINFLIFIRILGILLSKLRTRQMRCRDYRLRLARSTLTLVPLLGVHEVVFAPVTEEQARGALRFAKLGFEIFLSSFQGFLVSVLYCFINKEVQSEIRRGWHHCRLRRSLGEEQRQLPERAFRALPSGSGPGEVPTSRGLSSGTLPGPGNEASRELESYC
Binder,"Human GLP1R cAMP EC50, HEK293T [1]","Human GIPR cAMP EC50, HEK293T [2]"
[NMeY][Aib]EGTFISDYSIAK([G5-γGlu-C18 diacid])DR[Aib]AQ[Aib]DFVNWLLAQRPSSGAPPPS-NH2 [Compound No. 24],191 nM,0.0004 nM
[NMeY][Aib]EGTFISDYSIAK([AEEA-AEEA-γGlu-C18 diacid])DRIHQQNFVNWLLAQRPSSGAPPPS-NH2 [Compound No. 3],10.5 nM,0.0006 nM
[NMeY][Aib]EGTFISDYSI[Aib]LDRK([AEEA-AEEA-γGlu-γGlu-C18 diacid])AQ[Aib]NFVNWLLAQRPSSGAPPPS-NH2 [Compound No. 26],38.9 nM,0.0003 nM
[NMeY][Aib]EGTFISDYSIALDR[Aib]K(2OEGgEgE‑C18 diacid)Q[Aib]NFVNWLLAQSG-OH (N-terminus assumed; SMILES CC[C@H](C)[C@H](NC(=O)[C@H](CO)NC(=O)[C@H](Cc1ccc(O)cc1)NC(=O)[C@H](CC(=O)O)NC(=O)[C@H](CO)NC(=O)[C@@H](NC(=O)[C@H](Cc1ccccc1)NC(=O)[C@@H](NC(=O)CNC(=O)[C@H](CCC(=O)O)NC(=O)C(C)(C)NC(=O)[C@H](Cc1ccc(O)cc1)NC)[C@@H](C)O)[C@@H](C)CC)C(=O)N[C@@H](C)C(=O)N[C@@H](CC(C)C)C(=O)N[C@@H](CC(=O)O)C(=O)N[C@@H](CCCNC(=N)N)C(=O)NC(C)(C)C(=O)N[C@@H](CCCCNC(=O)COCCOCCNC(=O)COCCOCCNC(=O)CC[C@H](NC(=O)CC[C@H](NC(=O)CCCCCCCCCCCCCCCCC(=O)O)C(=O)O)C(=O)O)C(=O)N[C@@H](CCC(N)=O)C(=O)NC(C)(C)C(=O)N[C@@H](CC(N)=O)C(=O)N[C@@H](Cc1ccccc1)C(=O)N[C@H](C(=O)N[C@@H](CC(N)=O)C(=O)N[C@@H](Cc1c[nH]c2ccccc12)C(=O)N[C@@H](CC(C)C)C(=O)N[C@@H](CC(C)C)C(=O)N[C@@H](C)C(=O)N[C@@H](CCC(N)=O)C(=O)N[C@@H](CO)C(=O)NCC(=O)O)C(C)C) [Compound No. 46],105 nM,0.0003 nM
"YXEGTFISDYSIAXDRXAQXDFVNWLLAQSPSSGAPPPS (N-methyl Tyr 1; Aib at 2,17,20; Lys(G5-C18 diacid) at 14; C-terminal NH2) [Compound No. 38]",45.7 nM,0.0006 nM
"YXEGTFISDYSIAXDRXAQXDFVNWLLAQRPSSGAPPPS (N-methyl Tyr 1; Aib at 2,17,20; Lys(G5-C18 diacid) at 14; C-terminal OH) [Compound No. 43]",61.7 nM,0.001 nM
"YXEGTFISDYSIAXDRXAQXNFVNWLLAQSPSSGAPPPS (N-methyl Tyr 1; Aib at 2,17,20; Lys(G5-C18 diacid) at 14; C-terminal OH) [Compound No. 45]",8.22 nM,0.0006 nM
"YXEGTFISDYSIAXDRXAQXNFVNWLLAQRPSSGAPPPS (N-methyl Tyr 1; Aib at 2,17,20; Lys(G5-C18 diacid) at 14; C-terminal OH) [Compound No. 44]",10.7 nM,0.0017 nM
[NMeY][Aib]EGTFISDYSIALDR[Aib]AQ[Aib]K([AEEA-AEEA-γGlu-γGlu-C17 diacid])FVNWLLAQRGGGGS-NH2 [Compound No. 30],105 nM,0.0006 nM
[NMeY][Aib]EGTFISDYSIALDRK([AEEA-AEEA-γGlu-C18 diacid])AQ[Aib]DFVNWLLAQRPSSGAPPPS-NH2 [Compound No. 23],50.1 nM,0.0003 nM
[NMeY][Aib]EGTFISDYSIAK([G5-γGlu-C17 diacid])DR[Aib]AQ[Aib]DFVNWLLAQRPSSGAPPPS-NH2 [Compound No. 22],525 nM,0.0005 nM
[NMeY][Aib]EGTFISDYSIALDR[Aib]K([AEEA-AEEA-γGlu-C17 diacid])Q[Aib]DFVNWLLAQRPSSGAPPPS-NH2 [Compound No. 25],145 nM,0.0019 nM
[NMeY][Aib]EGTFISDYSIALDRIHQ[Aib]NFVNWLLAQK([AEEA-AEEA-γGlu-C18 diacid])PSSGAPPPS-NH2 [Compound No. 2],525 nM,0.0003 nM
[NMeY][Aib]EGTFISDYSIALDR[Aib]AQ[Aib]K([AEEA-AEEA-γGlu-γGlu-C18 diacid])FVNWLLAQRGGGGS-NH2 [Compound No. 21],34.7 nM,0.0004 nM
[NMeY][Aib]EGTFISDYSIALDR[Aib]K([AEEA-AEEA-γGlu-γGlu-C17 diacid])Q[Aib]NFVNWLLAQSGGGGS-NH2 [Compound No. 31],170 nM,0.0003 nM
[NMeY][Aib]EGTFISDYSI[Aib]K([AEEA-AEEA-γGlu-γGlu-C18 diacid])DR[Aib]AQ[Aib]NFVNWLLAQRPSSGAPPPS-NH2 [Compound No. 28],20.9 nM,0.0003 nM
[NMeY][Aib]EGTFISDYSIALDR[Aib]AQ[Aib]K(2OEGgEgE‑C18 diacid)FVNWLLAQSG-OH [Compound No. 42],5.5 nM,0.0008 nM
Y[Aib]EGTFISDYSIALDK[Aib]AQAK([AEEA-AEEA-γGlu-γGlu-C18 diacid])FVEWLLAQRG-OH (N-terminus assumed; SMILES CC[C@H](C)[C@H](NC(=O)[C@H](CO)NC(=O)[C@H](Cc1ccc(O)cc1)NC(=O)[C@H](CC(=O)O)NC(=O)[C@H](CO)NC(=O)[C@@H](NC(=O)[C@H](Cc1ccccc1)NC(=O)[C@@H](NC(=O)CNC(=O)[C@H](CCC(=O)O)NC(=O)C(C)(C)NC(=O)[C@@H](N)Cc1ccc(O)cc1)[C@@H](C)O)[C@@H](C)CC)C(=O)N[C@@H](C)C(=O)N[C@@H](CC(C)C)C(=O)N[C@@H](CC(=O)O)C(=O)N[C@@H](CCCCN)C(=O)NC(C)(C)C(=O)N[C@@H](C)C(=O)N[C@@H](CCC(N)=O)C(=O)N[C@@H](C)C(=O)N[C@@H](CCCCNC(=O)COCCOCCNC(=O)COCCOCCNC(=O)CC[C@H](NC(=O)CC[C@H](NC(=O)CCCCCCCCCCCCCCCCC(=O)O)C(=O)O)C(=O)O)C(=O)N[C@@H](Cc1ccccc1)C(=O)N[C@H](C(=O)N[C@@H](CCC(=O)O)C(=O)N[C@@H](Cc1c[nH]c2ccccc12)C(=O)N[C@@H](CC(C)C)C(=O)N[C@@H](CC(C)C)C(=O)N[C@@H](C)C(=O)N[C@@H](CCC(N)=O)C(=O)N[C@@H](CCCNC(=N)N)C(=O)NCC(=O)O)C(C)C) [Compound No. 155],85.1 nM,0.0008 nM
[NMeY][Aib]EGTFISDYSI[Aib]LDR[Aib]AQ[Aib]NFVNWLLAQK([AEEA-AEEA-γGlu-γGlu-C17 diacid])GGGGS-NH2 [Compound No. 33],437 nM,0.0008 nM
[NMeY][Aib]EGTFISDYSI[Aib]K([AEEA-AEEA-γGlu-γGlu-C17 diacid])DR[Aib]AQ[Aib]NFVNWLLAQSPSSGAPPPS-NH2 [Compound No. 29],417 nM,0.0004 nM
[NMeY][Aib]EGTFISDYSIALDR[Aib]HQ[Aib]NFVNWLLAQK([AEEA-AEEA-γGlu-C18 diacid])PSSGAPPPS-NH2 [Compound No. 1],10.5 nM,0.0004 nM
[NMeY][Aib]EGTFISDYSI[Aib]K([AEEA-AEEA-γGlu-γGlu-C17 diacid])DR[Aib]AQ[Aib]NFVNWLLAQRGGGGS-NH2 [Compound No. 32],1000 nM,0.0003 nM
[NMeY][Aib]EGTFISDYSIAK([G5-γGlu-γGlu-C18 diacid])DR[Aib]AQ[Aib]NFVNWLLAQRPSSGAPPPS-NH2 [Compound No. 34],1000 nM,0.0004 nM
[NMeY][Aib]EGTFISDYSIALDR[Aib]AQ[Aib]K([AEEA-AEEA-γGlu-γGlu-C18 diacid])FVNWLLAQRPSSGAPPPS-NH2 [Compound No. 35],89.1 nM,0.0007 nM
